US10570379B2, “Polypeptides for carbon-carbon bond formation and uses thereof” (INVISTA North America S.à.r.l., priority 2015, dated 2020)

Legend:
[1] = Mutant E324G provided with propionyl-CoA and acetyl-CoA; format: biochemical; conditions: propionyl-CoA + acetyl-CoA
Experimental: (§1) Acetyl-CoA was used at a final concentration of 1.5 mM and 30 mM of the substrate being studied (e.g. carboxylic acid salts, such as sodium acrylate) or 1.5 mM of propionyl-CoA in 50 mM Hepes buffer (pH 7.5). The reaction was started by addition of 0.5 mg/mL of YdiF pure protein or mutants to a final volume of 250 μL and incubated for 1 to 10 hours at 30° C.
(§2) All samples were prepared in triplicate and spun down at 15000 g for 20 min at 4° C. Detection of the thiol product (e.g. acryloyl-CoA) synthesized from CoA-transferase activity and the keto-thiol product (e.g. 3-oxopent-4-enoyl-CoA) due to putative thiolase activity of YdiF (or homologues) was carried out by Liquid Chromatography coupled to a qTof-Mass spectrometry (in positive mode), using a C18 column (Zorbax Eclipse C18, 2.1×50 mm, 1.8μ, Agilent, code product: 959757-902) and a gradient of 10 mM ammonium acetate and acetonitrile as mobile phase.
(§3) Mutations were introduced as described in Example 1 to replace the glutamate in position 324 of YdiF (see Selmer et al., 2002) with glycine (mutant E324G) or leucine (E324L). Activity of the mutant enzymes was studied as described in Example 2.

[2] = Activity of YdiF mutant enzymes (evaluation of potential active sites); format: biochemical; conditions: studied as in Example 2
Experimental: YdiF mutants were prepared using the relevant primers to introduce the mutated bases via the Quick change lightning kit (Agilent, code product: 210518-5), and cloned into E. coli. In addition, all the proteins used in this experiment have the following extra amino acids added in the N-terminal extremity of the original protein sequence (SEQ ID NO:1): […]. Those additional amino acids correspond to: two amino acids (M and G), a 6×His-tag followed by a 3 amino acids linker (SSG), and a specific proteolytic cleavage site (thrombin site, underlined) (SEQ ID NO: 22). All the sequences were confirmed by DNA sequencing.
as §1, §2
Mutations were introduced as described in Example 1 at the following positions previously found to be potentially involved in the active site of other β-ketothiolases: C258A, S60A, C112A, S38A, C390A. Activity of the mutant enzymes was studied as described in Example 2.
as §3

B1: E324G: YdiF mutant, glycine for the glutamate in position 324, SEQ ID NO: 3 (protein)
chain: MGHHHHHHSSGLVPRGSMRKVPIITADEAAKLIKDGDTVTTSGFVGNAIPEALDRAVEKRFLETGEPKNITYVYCGSQGNRDGRGAEHFAHEGLLKRYIAGHWATVPALGKMAMENKMEAYNVSQGALCHLFRDIASHKPGVFTKVGIGTFIDPRNGGGKVNDITKEDIVELVEIKGQEYLFYPAFPIHVALIRGTYADESGNITFEKEVAPLEGTSVCQAVKNSGGIVVVQVERVVKAGTLDPRHVKVPGIYVDYVVVADPEDHQQSLDCEYDPALSGEHRRPEVVGEPLPLSAKKVIGRRGAIELEKDVAVNLGVGAPEYVASVADEEGIVDFMTLTAGSGAIGGVPAGGVRFGASYNADALIDQGYQFDYYDGGGLDLCYLGLAECDEKGNINVSRFGPRIAGCGGFINITQNTPKVFFCGTFTAGGLKVKIEDGKVIIVQEGKQKKFLKAVEQITFNGDVALANKQQVTYITERCVFLLKEDGLHLSEIAPGIDLQTQILDVMDFAPIIDRDANGQIKLMDAALFAEGLMGLKEMKS
[1]
  keto-thiol product (3-oxopentanoyl-CoA): presence of the keto-thiol product
[2]
  transferase activity: Abolition of transferase activity
